According to patent US20230235075A1 (DYNAMICURE BIOTECHNOLOGY, published 2023):

What was measured:
[1] = target: T1, Human CD93 on the cell surface (human CD93 expressing CHO cells; HUVEC, U937 and KG1a cells) (human, UniProt Q9NPY3 22-652); test: FACS, CHO cells overexpressing human CD93
T1 construct: whole, on cells; also called hCD93 CHO cells; CHO-hCD93
T1 sequence (looked up): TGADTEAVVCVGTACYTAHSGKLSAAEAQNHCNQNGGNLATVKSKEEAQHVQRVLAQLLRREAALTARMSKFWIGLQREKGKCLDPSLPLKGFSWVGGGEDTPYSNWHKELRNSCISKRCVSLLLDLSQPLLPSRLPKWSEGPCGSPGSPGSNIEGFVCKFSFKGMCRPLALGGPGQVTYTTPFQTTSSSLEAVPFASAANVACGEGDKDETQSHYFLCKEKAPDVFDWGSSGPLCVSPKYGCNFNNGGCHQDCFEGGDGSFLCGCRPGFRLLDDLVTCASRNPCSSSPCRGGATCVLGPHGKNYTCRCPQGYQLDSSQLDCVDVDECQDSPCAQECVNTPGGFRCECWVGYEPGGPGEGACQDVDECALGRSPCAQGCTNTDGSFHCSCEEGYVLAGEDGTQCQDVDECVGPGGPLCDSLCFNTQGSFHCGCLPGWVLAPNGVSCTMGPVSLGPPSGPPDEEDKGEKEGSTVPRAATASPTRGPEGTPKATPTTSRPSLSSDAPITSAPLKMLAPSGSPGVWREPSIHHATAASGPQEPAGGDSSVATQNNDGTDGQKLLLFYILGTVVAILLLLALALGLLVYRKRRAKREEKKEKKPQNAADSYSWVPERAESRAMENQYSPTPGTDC

[2] = target: T2, Human CD93 recombinant protein (Sino Biological Inc, Catalog #12589-H08H) (human, UniProt Q9NPY3 22-580, biotinylated with EZ-LINK NHS-PEG4 biotin in the Octet assays); test: ELISA, His-tagged human CD93 coated at 1 µg/mL
T2 construct: also called hCD93; His-tagged human CD93
T2 sequence (looked up): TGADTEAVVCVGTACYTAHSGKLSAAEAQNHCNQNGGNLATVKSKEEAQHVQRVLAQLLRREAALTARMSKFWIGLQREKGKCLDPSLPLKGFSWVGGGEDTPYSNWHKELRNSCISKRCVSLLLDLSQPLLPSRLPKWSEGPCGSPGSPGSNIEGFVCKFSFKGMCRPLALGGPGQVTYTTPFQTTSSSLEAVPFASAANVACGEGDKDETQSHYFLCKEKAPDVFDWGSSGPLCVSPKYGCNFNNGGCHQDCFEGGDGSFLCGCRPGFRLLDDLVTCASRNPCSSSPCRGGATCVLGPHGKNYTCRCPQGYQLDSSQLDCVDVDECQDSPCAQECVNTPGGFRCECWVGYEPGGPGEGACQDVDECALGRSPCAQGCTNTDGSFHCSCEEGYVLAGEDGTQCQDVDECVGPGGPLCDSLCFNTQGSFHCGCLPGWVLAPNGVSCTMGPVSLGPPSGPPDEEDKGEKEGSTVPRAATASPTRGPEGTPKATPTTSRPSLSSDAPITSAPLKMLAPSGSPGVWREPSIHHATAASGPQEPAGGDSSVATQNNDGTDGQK
Procedure: 17B10 antibody produced by hybridoma (17B10-Hyb in FIG. 33) was compared to recombinant parental 17B10-hFc (17B10-hIgG1 in FIG. 33) and humanized 17B10-mFc (h17B10-H3L3 in FIG. 33) to determine the binding to human CD93. His-tagged human CD93 was coated onto a 96 well plate at 1 μg/mL in 1×PBS overnight at 4° C. The plate was washed with ELISA wash buffer (Boston BioProduct, Inc.) and the wells were blocked with ELISA blocking buffer for 1 hour at 37° C. Purified 17B10 antibodies were serially diluted in ELISA blocking buffer (Boston BioProduct, Inc.) and incubated on the receptor for 1 hour at 37° C. The plate was washed with ELISA wash Buffer. HRP conjugated Anti-mouse Fc was diluted in ELISA blocking buffer and added to the wells containing the hybridoma produced 17B10. HRP conjugated anti-human Fc was added to the well containing the recombinant 17B10 antibodies for 1 hour at 37° C. The plate was washed with ELISA wash Buffer. HRP substrate was added for indirect detection of the antibodies binding to CD93.

[3] = target: T1, Human CD93 on the cell surface (human …); test: summary table, column 'Binding' (assay not given)
[4] = target: T1, Human CD93 on the cell surface (human …); test: FACS, human CD93 expressing CHO cells, serially diluted antibody
Procedure: Binding of anti-CD93 antibodies 7F3 and 16E4 to cell surface expressing human CD93 CHO cells was determined by fluorescence activated cell sorting (FACS) assay. Human CD93 expressing CHO cells were detached by incubation with TrypLE reagents (Thermo Fisher), which preserves the integrity of CD93 on the cell surface. Then the cells were incubated with serially diluted anti-CD93 antibodies for 30 minutes in 4° C. After washing by FACS buffer, the cells were incubated with Alexa Fluor 647 conjugated anti-human IgG (Jackson ImmunoResearch) for 30 minutes in 4° C. After washing by FACS buffer twice, the samples were acquired in NovoCyte Flow Cytometer and analyzed by NovoExpress software.

[5] = target: T2, Human CD93 recombinant protein (Sino …); test: BLI (Octet QKe), biotinylated CD93 on streptavidin sensors
[6] = target: T1, Human CD93 on the cell surface (human …); test: flow cytometry, primary HUVEC cells, with and without human serum
Procedure: Recombinant parental anti-CD93 antibodies were evaluated for their ability to bind to HUVEC cells in the presence or absence of human serum. The 16E4, 7F3, 16A1, and 17B10 sequences obtained from the hybridoma cells were expressed recombinantly with a human CH1 domain and mouse IgG1 CH2 and CH3 Fc domains. Antibodies were purified using Protein G Sepharose. The resulting antibodies were tested for its binding capacity to a variety of cells that express CD93. […] Cells were quenched with media then counted. Cells were resuspended in FACS buffer (ice cold PBS with 0.5% BSA) and human serum was added to 20% (10% final volume) and put on ice for approximately 20 minutes. 5×10⁴ cells were seeded per well in 100 μL media and incubated with serial diluted anti-CD93 antibodies in 100 μL on ice for 2 hours. Cells were then washed by spinning cells at 1200 rpm for 5 min. Media was discarded and cells were resuspended in 200 μL ice cold FACS buffer. The wash step was repeated and cells were resuspended in 100 μL of secondary antibody, AlexaFluor647 conjugated anti-human IgG or anti-mouse IgG antibodies (Jackson ImmunoResearch), diluted 1:500 in FACS buffer. Plates were blocked from light and incubated 1 hour at 4° C. […] Samples were stored at 4° C. covered in foil, then were acquired in NovoCyte Flow Cytometer and analyzed by NovoExpress software.

B1: Humanized 17B10 (VH3VL3, i.e., H3L3) (antibody, mouse IgG1, V domains shown)
VH: QVQLVQSGPEVKKPGESLKISCKASGYAFSSYWLNWVRQMPGKGLEWMGRIYPGDGDTDYNGKFKGQVTISADKSSGTAYLQLSSLKASDTAVYFCVRGDGYWAMDYWGQGTLVTVSS
VL: DIVMTQSPDSLAVSLGERATINCRFSKSLLHSNGITYLYWYQQKPGQPPKLLIYQMSNLASGVPDRFSGSGSGTDFTLTISSLQAEDVAVYYCAQNLELPWTFGGGTKLEIK
notes: also called h17B10-H3L3; humanized 17B10-mFc
B1: binds [1]; binds [2].

B2: 17B10 (hybridoma) (antibody, V domains shown)
VH: QVQLQQSGPELVKPGASVKISCKASGYAFSSYWLNWVKQRPGKGLEWFGRIYPGDGDTDYNGKFKGKATLTADKSSSTAYMQLRSLTSEDSAVYFCVRGDGYWAMDYWGQGTSVTVSS
VL: DIVMTQAAFSNPVTLGTSASISCRFSKSLLHSNGITYLYWYLQKPGQSPQLLIYQMSNLASGVPDRFSSSGSGTDFTLRISRVEAEDVGVYYCAQNLELPWTFGGGTKLEIK
notes: Mouse hybridoma monoclonal antibody, purified over Protein G
B2: binds [2]; binds [3].

B3: recombinant parental 17B10-hFc (antibody, human IgG1, V domains shown)
VH: QVQLQQSGPELVKPGASVKISCKASGYAFSSYWLNWVKQRPGKGLEWFGRIYPGDGDTDYNGKFKGKATLTADKSSSTAYMQLRSLTSEDSAVYFCVRGDGYWAMDYWGQGTSVTVSS
VL: DIVMTQAAFSNPVTLGTSASISCRFSKSLLHSNGITYLYWYLQKPGQSPQLLIYQMSNLASGVPDRFSSSGSGTDFTLRISRVEAEDVGVYYCAQNLELPWTFGGGTKLEIK
notes: also called 17B10-hIgG1; recombinant parental 17B10 with the human Fc
B3: binds [2].

B4: 16E4-hIgG1 (antibody, V domains shown)
VH: QVQLQQPGAELVKPGASVKLSCKASGYTFTSYWMHWVKQRPGQGLEWIGEIDPSASYTYYNQKFKGKATLTVDKSSSTAYMQLSSLTSEDSAVYYCARSVYYGNKYFDVWGAGTTVTVSS
VL: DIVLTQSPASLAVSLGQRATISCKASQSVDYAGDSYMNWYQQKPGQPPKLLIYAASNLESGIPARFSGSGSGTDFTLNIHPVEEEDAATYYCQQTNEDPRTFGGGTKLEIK
notes: the same paragraph also calls it 'humanized'; also called recombinant 16E4; recombinant chimeric 16E4
An EC50 [4] of 0.24 nM was found for B4 in this work.

B5: 7F3-hIgG1 (antibody, V domains shown)
VH: QVQLQQSGADLVRPGASVKLSCKASGYTFTDYEMHWVKQTPVYGLEWIGGIDPETGDTAYNQNFKGKATLTADKSSSAAYMELRSLTSEDSAVYYCTNYGNLYYYAMDYWGQGTSVTVSS
VL: ENVLTQSPAIMSASPGEKVTMTCRASSSVSSSYLHWYQQKSGASPKLWIYSTSNLAFGVPARFSGSGSGTSYSLTISSVEAEDAATYYCQQYSGYPLTFGSGTKLEIK
notes: the same paragraph also calls it 'humanized'; also called recombinant 7F3 antibody; recombinant chimeric 7F3
An EC50 [4] of 0.4 nM was found for B5 in this work.

B6: 10B1 (antibody, V domains shown)
VH: QVQLKQSGPGLVQPSQSLSITCTVSDFSLSSFGVNWVRQPPGKGLEWLGVIWSGGSTDYNVAFISRLSISKDNSKSQVFFKMNNLQADDTAIYYCARNWRYDGYFYAMDYWGQGTSVTVSS
VL: DIVMTQSQKFMSTSTGDRVSVTCKASQNVGTNVAWYQQKPGQSPKALIYSASYRFIGVPDRFTGSGSGTDFTLTITNVQSEDLAEYFCQQYNRNPITFGSGTKLEIK
notes: Mouse hybridoma monoclonal antibody; also called 10B1 mAb
B6: binds [3]; binds [5].

B7: Recombinant parental 17B10 (human CH1 domain, mouse IgG1 CH2 and CH3 Fc domains) (antibody, V domains shown)
VH: QVQLQQSGPELVKPGASVKISCKASGYAFSSYWLNWVKQRPGKGLEWFGRIYPGDGDTDYNGKFKGKATLTADKSSSTAYMQLRSLTSEDSAVYFCVRGDGYWAMDYWGQGTSVTVSS
VL: DIVMTQAAFSNPVTLGTSASISCRFSKSLLHSNGITYLYWYLQKPGQSPQLLIYQMSNLASGVPDRFSSSGSGTDFTLRISRVEAEDVGVYYCAQNLELPWTFGGGTKLEIK
B7: binds [6].
